Test results reported in a protein production outcome set (Wang et al. 2014).
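Also: failed if final PepcDB status was selected cloned or expressed and not failed if soluble or beyond.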

Experiment: label from the status in PepcDB records
With “MNDITIIGASQNNLKNINITIPKHLVTVFTGRSGSGKSSLVFRTIAAESEQLLNESYSSYIQFHLNKQPKPKVNAIKNLPVAMTISQKRFNGNSRSTVGTVSDIYASVRLLWSRIGEPFVGYSDAFSFNSPNGMCETCEGLGYIEDINLNELLDWNKSLNEGAINFPSFGPDKERGKAYRDSGLFDNDKKLKAYTKEELDLFLYQEPIKLKKPPEEWRKSAKYVGLIPRFRRIFLGDKEFNKKRYAKHLKNVVENKVCPTCNGQRLNSKILSCKIMGKNISDFTQMTVKENLAFLNKLNNSTAQFIIEPLRKQLEALDYIGLSYLTLDRVTTSLSGGEAQRLKLIRHLNSSLSDLVYIIDEPSVGLHPEDIAKINEILKSLKHKGNTVLIVEHDPDVIKEADYIIDMGPSSGAQGGEITFKGTYKKLLSSDTSTGEALRIKHHLKNEIREAKSFYHLGPVTQNNLNNVTVDIPKHVLTVLTGVAGSGKSSLVKAGFAKNDNAVFMDQKAIQGSDRSNLLTYLGVFDRVRNFFSKETGLNKSMFSYNSKGACPNCGGKGYIETELAFMGEFSQTCEVCHGKRYKPEVLNATIDGYSIADFLELTVDEGIRFFDKENEIQSKLQAISKTGLNYVTLGQPLSTLSGGEIQRVKLGQYLNDDVTDSIFIFDEPTTGLHEADIPILINCFNDLIEQNNTVILIEHNLSIMCDADWIIDVGPGPGLDGGKIQFSGYPINFVKENKTLTSKHLKLYIAND” the protein production was “failed”. With “MNDRARELASRLIRNFNEASLEHEVREPLYESAAARLGTGTVAHKLGASVDVVAPGKRSCPYHFHHAQEEMFVIIEGEGSLRVAGEMLPIKTGDVLFIPAGPEYPHQIINTSQAPLKYLSISTRETPEVCEYPDSGKYQAMVSANGARVFTANQRTTENVDYWDGEPLEHHHHHH” the protein production was “not failed”. With “MNDSTMKCIKLAAIVCIAIGLSACSEQKTTQEYILASKVYLQKLEYGAAIVELKNAVRQTPKDAEARYYLAKAYSEQGSYVNAEKELDKAEQFGLEMNLLLPDLVFIKSKLNKVEEVYALMENVESLNDEQYIVVLTYAGITALNNKELERAQDFIAQANTISETSLYSKMGAAYLLHAEDNFSKGIEIIDTVLGESPDFTEALLLKGHLLFSSEQFIQANGVYTKYRQLHPFANKVLFFEVNSLISAGEYEQADVKATELIKRFKNSPLAHQYKAQVEYQKKNYEDARSYAISAAQQGNEFIISKLIAGMSSYQLGDIEQAYGYLNQTEKYLPSSHPIKRILASIKIKLGYTTEGIVQLSALEGLTTSDAGLFQSSSIELIKAGDFENAIKLLDKASIIAPENASVAAQKGMLKLSQNDKTGIASLEHALNLDPNLKDVEFSLAIQYLDNGQEKKVRSIAKKWIASQDNQASGYLLLGIIHSNNNLSSKAEENYQKALSIEPENYTALFYLADIAEDADRILDAVDYYQKVVTILPEHKAAIQKLSRLQLKHNNTSNNVEFLSTLAAKHPKNITLALGLAQNLRLNNELKKAITLLESMSDWARSSQQYWAILGDNYLQAKSHTKAKECFKKVLALNPNNFVAHLRLIAISEVKRNYKQALTYTISSLERFEHNTRLLILKANFELLTGDLVSAKKTLRYLQEQKVSHHLINKFVGELALADKDYPSAIDNFHELYQKSPTALNVMLLARALSFNGQKAEAAQTIESYLSRMIKDHKVRLLLAELYMQFDEAKAIKHLEIINQSEQNNAVVLNNLAMLELKRARPEQALLYAEKAFELKSGIHQISDTYGAALVTVKNFDSAIIVLLNAINQGSEAETTYVNLTKAYLATGKTDKVKALLDSIKDRTFYSKVQAMR” the protein production was “failed”. In the case of “MNEDGNDTPRPLGEVPEFRRIRSGPLPPHQNIPPRRRAPADQLPWLPSAAARRRRAALLLCGFLSAVVLLVSGSSWAVTGWLSDQLHRYDVFTGLLDENRPPASQGALNFLVIGSDDRSGLDSRQRSELGVGNVEGRRSDTMMLVHLNHQREHITVVGIPRDSWVRIPGHGPDKINAAYSLGGPQLAVQTVEAATGVRIDHYVEIDFTGFVEVVDTLGGITVCLPEAIHDEKAHLSLEAGTHRLQGTQALAFARTRKSPHGDLDRIDRQQQVLAALLDEALNAQILSDPARLAQFVETALGSITVDDTLDTAALIQLGTQLRSLGLDDVTFTQVPVDRIDFWTPSGEVAVTWHEQHATELFTAIAADRPIPQPQSAEDSALPSPDEVTVEVYNGTTIPGLGAQVRVELLESGFQVPESAGNWPQQDLAETLVRYSPEREDAATLLVESIPGARAEVDPGLGGRVQVIAGVNHTGVAVPAHAASPIAEQPVDVGGRETVHTRTAAENVCR”, the protein production is reported as “failed”.
